Laboratory results published in US6348573B1, “Compositions and methods for identifying apoptosis signaling pathway inhibitors and activators” (The Regents of the University of Michigan, priority 1998, dated 2002).

How the values were obtained:
BJAB cells = test: BJAB apoptosis induced by anti-CD95 (anti-APO1) antibody; type: cell-based, human; details: BJAB stably expressing the mutant vs control plasmid, PI staining
Method: The total amount of transfected plasmid DNA was adjusted with pcDNA3 plasmid to be the same within individual experiments. After transfection, 293T cells were harvested at different times and lysed with 0.2% NP-40 isotonic lysis buffer [N. Inohara et al., Proc. Natl. Acad. Sci. U.S.A. 94:10717-10722 (1997)]. The B lymphocyte-derived BJAB cell line was stably trasnfected by electroporation with pcDNA3 or pcDNA3-Flag-RICK (K38M). After selection with […] (1 μg/ml), bulk cell lines were tested for RICK protein expression with anti-Flag antibody by flow cytometric analysis. […]
Apoptosis Assays: 5×10^5 293T cells were co-transfected with 0.2 μg of pcDNA3-β-gal plus each expression plasmid in triplicate by the calcium phosphate method as reported [N. Inohara et al., Proc. Natl. Acad. Sci. U.S.A. 94:10717-10722 (1997)]. […] At least 300 hundred blue-staining cells were counted. BJAB apoptosis induced by anti-Apol mAb was determined by flow cytometric analysis of nuclei stained with propidium iodide as described [R. Merino et al., J. Immunol. […] Statistical significance was determined by one-way ANOVA followed by Student-Neuman-Keuls post-doc comparisons.

293T cells = test: Apoptosis assay, RICK co-transfection; type: cell-based, human; details: 293T cells
Method: (§1) The total amount of transfected plasmid DNA was adjusted with pcDNA3 plasmid to be the same within individual experiments. After transfection, 293T cells were harvested at different times and lysed with 0.2% NP-40 isotonic lysis buffer [N. Inohara et al., Proc. Natl. Acad. Sci. U.S.A. 94:10717-10722 (1997)]. The B lymphocyte-derived BJAB cell line was stably trasnfected by electroporation with pcDNA3 or pcDNA3-Flag-RICK (K38M). After selection with […] (1 μg/ml), bulk cell lines were tested for RICK protein expression with anti-Flag antibody by flow cytometric analysis. For immunoprecipitation, 1 mg of soluble protein was incubated with 10 μg/ml of polyclonal anti-Flag, anti-myc or control antibody overnight at 4° C. and tagged proteins were immunoprecipitated with Protein A-Sepharose 4B (Zymed Laboratories Inc.). Immunoprecipitated proteins or total lysates were subjected to 12% SDS-polyacrylamide electrophoresis and immunoblotted with monoclonal antibodies (mAb) to HA (Boeringer Mannheim) or Flag (Kodak).
Apoptosis Assays: 5×10^5 293T cells were co-transfected with 0.2 μg of pcDNA3-β-gal plus each expression plasmid in triplicate by the calcium phosphate method as reported [N. Inohara et al., Proc. Natl. Acad. Sci. U.S.A. 94:10717-10722 (1997)]. In some experiments, 20 μM of the caspase inhibitor zVAD-fmk (Enzyme Systems Products) or 12.5 μl of medium from […] cells producing Fas ligand (Immunex Corporation, Seattle, Wash.) was added at 8 hrs after transfection. At 18 or 24 hours after transfection, cells were fixed, stained for β-galactosidase as described [N. Inohara et al., Proc. Natl Acad. Sci. U.S.A. 94:10717-10722 (1997)] and assayed for morphological features of apoptosis. At least 300 hundred blue-staining cells were counted. BJAB apoptosis induced by anti-Apol mAb was determined by flow cytometric analysis of nuclei stained with propidium iodide as described [R. Merino et al., J. Immunol. 155:3830-3838 (1995)]. Statistical significance was determined by one-way ANOVA followed by Student-Neuman-Keuls post-doc comparisons.

CLARP [1] = molecular target: T1, CLARP (Homo sapiens, UniProt O15519); test: Co-immunoprecipitation of RICK with CLARP; type: binding; design: expressed in transfected cells; host or cells: human 293T cells; details: CLARP-C (residues 246-480)
Method: as §1

[2] = test system: caspase-1, caspase-2, caspase-3, caspase-4, caspase-8, CED-3, CED-4, Bcl-XL, TRAF2, c-IAP-1, c-IAP-2 or RAIDD; test: Association of RICK with other apoptosis regulatory proteins; type: binding; details: 293T lysates
Method: as §1

caspase-8 = molecular target: T2, caspase-8 (Homo sapiens, UniProt Q14790); test: Caspase enzymatic assay (Ac-DEVD-AMC) after RICK co-transfection; type: biochemical; details: immunoprecipitated caspase-8, Ac-DEVD-AMC substrate
T2 construct: expressed in transfected cells; host or cells: human 293T cells
Method: Caspase Enzymatic Assay: The human FADD cDNA was cloned into the BamHI and XhoI sites of pcDNA3-myc to produce C-terminal myc-tagged FADD. 5×10^6 293T cells were transfected with 5 μg of pcDNA3, pcDNA3-caspase-8-AU1 or pcDNA3-caspase-8-mt-AU1 [N. Inohara et al., Proc. Natl. Acad. Sci. U.S.A. 94:10717-10722 (1997)] plus 5 μg of pcDNA3, pcDNA3-FADD-myc or pcDNA3- Flag-RICK. At 16 hours after transfection, cells were harvested and lysed with NP-40 buffer [N. Inohara et al., Proc. Natl. Acad. Sci. U.S.A. 94:10717-10722 (1997)]. AU1-tagged proteins were immunoprecipitated with mAb to AU1 and the Ac-DEVD-AMC cleavage activity was measured as previously described [N. Inohara et al., Proc. Natl. Acad. Sci. U.S.A. 94:10717-10722 (1997)].

CLARP [3] = molecular target: T1, CLARP; test: Co-immunoprecipitation of RICK with CLARP; type: binding
Method: as §1

FADD [4] = molecular target: T3, FADD (Homo sapiens, UniProt Q13158); test: FADD phosphorylation in transfected cells; type: cell-based; details: 293T cells, co-expression with CLARP
T3 construct: made in house
T3 sequence (Q13158 1-208): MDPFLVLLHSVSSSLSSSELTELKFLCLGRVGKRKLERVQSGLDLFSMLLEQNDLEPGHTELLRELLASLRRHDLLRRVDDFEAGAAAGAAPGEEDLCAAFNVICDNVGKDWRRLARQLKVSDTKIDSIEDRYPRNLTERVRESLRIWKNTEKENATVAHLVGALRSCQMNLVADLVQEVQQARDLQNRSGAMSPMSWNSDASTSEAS
Method: Therefore, next it was determined whether expression of CIPERK can regulate the phosphorylation of FADD in vivo. Expression plasmids producing HA-CLARP, Flag-CIPERK and AU1-FADD were transiently transfected into 293T cells, and the expression of FADD was monitored by immunoblotting with anti-AU1 antibody. Transfection of plasmids producing either FADD or FADD plus CIPERK induced the expression of two closely migrating AU1-tagged FADD proteins of ˜27 kDa (FIG. 12A). In contrast, co-expression of FADD, CIPERK and CLARP induced the expression of two additional FADD bands migrating at ˜30 kDa (FIG. 12A), previously shown to represent phosphorylated FADD [B. Z. Stanger et al., Cell 81:513-523 (1995)]. […] The increased induction of FADD phosphorylation by CLARP was specific in that was not observed when FADD was co-expressed with only CIPERK and caspase-8 (FIG. 12A). Furthermore, FADD phosphorylation was induced by ectopic expression of CD95 (FIG. 12B), a stimulus known to induce CD95 oligomerization and activation [J. P. Medema et al., EMBO J. 16:2794 -2804 (1997); B. Z. Stanger et al., Cell 81:513-523 (1995)].

FADD [5] = molecular target: T3, FADD; test: In vitro phosphorylation of recombinant FADD by RICK immunoprecipitates; type: biochemical; details: immunoprecipitates from 293T cells, 5 μM [γ-32P]ATP
Excerpt: CIPERK proteins in total lysate were detected by immunoblotting with mAb to Flag (middle panel). Recombinant FADD on the same filter used in (A) was detected by immunoblotting, with rabbit polyclonal anti-(His)6 antibody (lower panel). Note CIPERK was autophosphorylated. The estimated molecular size is shown on the left [293T cells were transfected with vector control or plasmid expressing Flag-CIPERK (WT) or Flag-CIPERK-K38M (mt), and then CIPERK proteins were immunoprecipitated by mAb to Flag and incubated with recombinant FADD and 5 μM [γ-^32P]ATP].

NF-KB = NF-KB activation by RICK; type: cell-based, human; details: 293T cells
[6] = molecular target: T4, Flag-tagged RICK (RIP-like interacting CLARP kinase), pcDNA3-Flag-RICK (human, UniProt O43353 11-540, limits assumed); test: anti-Flag immunoprecipitation from co-transfected 293T cells, anti-HA immunoblot
T4 construct: Entire open reading frame of RICK, expressed in 293T cells; also called CIPERK; Flag-CIPERK; not shown: N-terminal Flag tag
T4 sequence (O43353 other isoform, or with tags, fused parts or gaps limits assumed): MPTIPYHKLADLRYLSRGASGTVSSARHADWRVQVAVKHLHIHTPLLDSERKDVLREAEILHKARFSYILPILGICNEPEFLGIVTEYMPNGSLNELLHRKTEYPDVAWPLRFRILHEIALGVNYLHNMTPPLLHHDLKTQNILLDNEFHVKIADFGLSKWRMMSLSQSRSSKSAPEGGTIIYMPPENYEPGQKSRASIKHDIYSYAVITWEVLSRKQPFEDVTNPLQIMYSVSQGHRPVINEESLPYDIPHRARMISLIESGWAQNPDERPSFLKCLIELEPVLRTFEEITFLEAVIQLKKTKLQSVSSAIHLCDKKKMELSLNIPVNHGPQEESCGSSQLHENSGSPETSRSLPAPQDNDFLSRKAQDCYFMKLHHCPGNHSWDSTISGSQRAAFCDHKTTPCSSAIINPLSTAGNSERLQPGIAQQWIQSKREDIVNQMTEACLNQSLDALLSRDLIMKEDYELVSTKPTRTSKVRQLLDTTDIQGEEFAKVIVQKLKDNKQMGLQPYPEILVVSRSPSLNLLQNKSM

## RICK-K38M: RICK ATP-binding site mutant, lysine at position 38 replaced by methionine
BJAB cells
  sensitivity to anti-APO1-induced apoptosis: significantly less sensitive

## RICK: RIP-like interacting CLARP kinase, protein of 531 amino acids (SEQ ID NO:1)
293T cells; RICK alone
  induction of apoptosis by expression of RICK: did not
293T cells; co-expression of wt or mutant RICK
  apoptosis induced by FADD, CLARP and caspase-8: enhanced
293T cells; co-expression with RICK
  apoptosis promoted by caspase-8: augmented
  apoptosis promoted by caspase-10: augmented
293T cells; co-expression with RICK, Cys377 to Ser mutant
  apoptosis induced by caspase-8-mt: did not augment
CLARP [1]
  interaction with the C-terminal caspase-like domain of CLARP: interacted
[2]
  association with multiple apoptosis regulatory proteins (caspase-1, -2, -3, -4, -8, CED-3, CED-4, Bcl-XL, TRAF2, c-IAP-1, c-IAP-2, RAIDD): did not associate
caspase-8
  enzymatic activity of wild-type (wt) caspase-8: enhanced
CLARP [3]; 293T lysates
  co-immunoprecipitation with CLARP: co-immunoprecipitated
CLARP [3]; CLARP-N
  interaction with the N-terminal DED-containing domain of CLARP: not
FADD [4]
  phosphorylation of FADD in cells: induced the phosphorylation of FADD in the presence of CLARP
FADD [5]
  phosphorylation of recombinant FADD: induced phosphorylation
NF-KB
  activation of NFkB: induction of NFkB

B1: TRAF2 (other, UniProt Q12933 1-501, looked up, not shown: small tags and cut ends)
chain: MAAASVTPPGSLELLQPGFSKTLLGTKLEAKYLCSACRNVLRRPFQAQCGHRYCSFCLASILSSGPQNCAACVHEGIYEEGISILESSSAFPDNAARREVESLPAVCPSDGCTWKGTLKEYESCHEGRCPLMLTECPACKGLVRLGEKERHLEHECPERSLSCRHCRAPCCGADVKAHHEVCPKFPLTCDGCGKKKIPREKFQDHVKTCGKCRVPCRFHAIGCLETVEGEKQQEHEVQWLREHLAMLLSSVLEAKPLLGDQSHAGSELLQRCESLEKKTATFENIVCVLNREVERVAMTAEACSRQHRLDQDKIEALSSKVQQLERSIGLKDLAMADLEQKVLEMEASTYDGVFIWKISDFARKRQEAVAGRIPAIFSPAFYTSRYGYKMCLRIYLNGDGTGRGTHLSLFFVVMKGPNDALLRWPFNQKVTLMLLDQNNREHVIDAFRPDVTSSSFQRPVNDMNIASGCPLFCPVSKMEAKNSYVRDDAIFIKAIVDLTGL
[6]
  binding result: no binding

B2: caspase-8, epitope-tagged (pcDNA3-caspase-8-AU1) (enzyme, human, UniProt Q14790-4 1-496, looked up, not shown: small tags and cut ends)
chain: MDFSRNLYDIGEQLDSEDLASLKFLSLDYIPQRKQEPIKDALMLFQRLQEKRMLEESNLSFLKELLFRINRLDLLITYLNTRKEEMERELQTPGRAQISAYRFHFCRMSWAEANSQCQTQSVPFWRRVDHLLIRVMLYQISEEVSRSELRSFKFLLQEEISKCKLDDDMNLLDIFIEMEKRVILGEGKLDILKRVCAQINKSLLKIINDYEEFSKGEELCGVMTISDSPREQDSESQTLDKVYQMKSKPRGYCLIINNHNFAKAREKVPKLHSIRDRNGTHLDAGALTTTFEELHFEIKPHDDCTVEQIYEILKIYQLMDHSNMDCFICCILSHGDKGIIYGTDGQEAPIYELTSQFTGLKCPSLAGKPKVFFIQACQGDNYQKGIPVETDSEEQPYLEMDLSSPQTRYIPDEADFLLGMATVNNCVSYRNPAEGTWYIQSLCQSLRERCPRGDDILTILTEVNYEVSNKDDKKNMGKQMPQPTFTLRKKLVFPSD
notes: also called AU1-tagged caspase-8; FLICE
[6]
  binding result: no binding

B3: C. elegans CED-3, epitope-tagged (pcDNA3-Ced-3-Flag) (enzyme, UniProt P42573 1-503, looked up)
chain: MMRQDRRSLLERNIMMFSSHLKVDEILEVLIAKQVLNSDNGDMINSCGTVREKRREIVKAVQRRGDVAFDAFYDALRSTGHEGLAEVLEPLARSVDSNAVEFECPMSPASHRRSRALSPAGYTSPTRVHRDSVSSVSSFTSYQDIYSRARSRSRSRALHSSDRHNYSSPPVNAFPSQPSSANSSFTGCSSLGYSSSRNRSFSKASGPTQYIFHEEDMNFVDAPTISRVFDEKTMYRNFSSPRGMCLIINNEHFEQMPTRNGTKADKDNLTNLFRCMGYTVICKDNLTGRGMLLTIRDFAKHESHGDSAILVILSHGEENVIIGVDDIPISTHEIYDLLNAANAPRLANKPKIVFVQACRGERRDNGFPVLDSVDGVPAFLRRGWDNRDGPLFNFLGCVRPQVQQVWRKKPSQADILIAYATTAQYVSWRNSARGSWFIQAVCEVFSTHAKDMDVVELLTEVNKKVACGFQTSQGSNILKQMPEMTSRLLKKFYFWPEARNSAV
notes: not shown: position and
[6]
  binding result: no binding

B4: caspase-4 (enzyme, UniProt P49662 1-377, looked up, not shown: small tags and cut ends)
chain: MAEGNHRKKPLKVLESLGKDFLTGVLDNLVEQNVLNWKEEEKKKYYDAKTEDKVRVMADSMQEKQRMAGQMLLQTFFNIDQISPNKKAHPNMEAGPPESGESTDALKLCPHEEFLRLCKERAEEIYPIKERNNRTRLALIICNTEFDHLPPRNGADFDITGMKELLEGLDYSVDVEENLTARDMESALRAFATRPEHKSSDSTFLVLMSHGILEGICGTVHDEKKPDVLLYDTIFQIFNNRNCLSLKDKPKVIIVQACRGANRGELWVRDSPASLEVASSQSSENLEEDAVYKTHVEKDFIAFCSSTPHNVSWRDSTMGSIFITQLITCFQKYSWCCHLEEVFRKVQQSFETPRAKAQMPTIERLSMTRYFYLFPGN
[6]
  binding result: no binding
